# Data reported in article PMC6899631, “An essential pentatricopeptide repeat protein in the apicomplexan remnant chloroplast”.
# T1: His6-TRX-PfPPR1 (Plasmodium falciparum, UniProt Q8IM30 121-608)
# T1 sequence: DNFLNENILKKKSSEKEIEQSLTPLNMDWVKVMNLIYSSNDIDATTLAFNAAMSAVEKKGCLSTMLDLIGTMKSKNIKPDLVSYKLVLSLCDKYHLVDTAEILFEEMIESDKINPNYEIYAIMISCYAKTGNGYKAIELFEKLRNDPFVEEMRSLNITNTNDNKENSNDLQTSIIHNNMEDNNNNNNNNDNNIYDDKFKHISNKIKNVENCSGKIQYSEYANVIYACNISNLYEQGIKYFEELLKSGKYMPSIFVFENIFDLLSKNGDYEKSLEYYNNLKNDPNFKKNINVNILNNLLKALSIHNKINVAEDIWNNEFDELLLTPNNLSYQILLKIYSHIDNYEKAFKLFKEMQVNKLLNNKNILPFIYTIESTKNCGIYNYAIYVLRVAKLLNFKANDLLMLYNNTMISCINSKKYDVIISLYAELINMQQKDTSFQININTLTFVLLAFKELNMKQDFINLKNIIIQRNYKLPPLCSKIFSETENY
# Tests used:
# [1] = target: His6-TRX-PfPPR1 (Plasmodium falciparum apicoplast pentatricopeptide repeat protein PPR1, minus the bipartite leader, with N-terminal TRX-His6 tag) (Plasmodium falciparum); assay: SEC; S200 10/300 analytical gel filtration column in 50 mM Tris pH 8.0, 200 mM NaCl, 5 mM DTT; sample in 10 mM HEPES pH 7.5, 20 mM KCl, 1 mM MgCl2, 1 mM DTT, 15 min at room temperature; control without RNA (with RNA 4 or RNA 5 the dimer eluted earlier, with RNA bound)
# [2] = target: PfPPR1 minus the His6-TRX tag (tag cleaved by HRV 3C protease) (Plasmodium falciparum); assay: AUC; sedimentation velocity, PfPPR1 minus His6-TRX tag at 1.8 mg/mL, continuous c(s) distribution model
# His6-TRX-PfPPR1 = target: T1, His6-TRX-PfPPR1; assay: pull-down; Pull-down: 10 mM HEPES pH 7.5, 20 mM KCl, 1 mM MgCl2, 1 mM DTT, room temperature 15 min; 400 nM biotinylated RNA, 800 nM protein (Results state 1:1 molar). Gel; conditions: protein: recombinant; tags: N-terminal TRX-His6 (HRV 3C cleavable); chain copies: 2; label: 3' biotin (pull-down)
Molecule,binding result (His6-TRX-PfPPR1),other results
"His6-TRX-PfPPR1 (Plasmodium falciparum apicoplast pentatricopeptide repeat protein PPR1, minus the bipartite leader, with N-terminal TRX-His6 tag) (natural protein)",,stoichiometry N [1]: 2
PfPPR1 minus the His6-TRX tag (tag cleaved by HRV 3C protease) (natural protein),,stoichiometry N [2]: 2
ACGACAUUAUAUGGUCGGA (ssRNA) [RNA oligo 1],binds,
ACGACAUGACGAGGUCGGA (ssRNA) [RNA oligo 3],no binding,
ACGACAUUAUAAGGUCGGA (ssRNA) [RNA oligo 2],binds,
